Consider one molecule from patent US10471162B2, “Collagen targeted imaging probes” (priority 2014, dated 2019).

The test system of data set [1] is pulmonary fibrosis, C57/BL6 mice (bleomycin or sham). Kind of data set: in vivo. In kind it is in vivo, mouse. As to conditions: in vivo, iv. The method, then:
(§1) Pulmonary fibrosis was induced in 7-8-week-old male C57/BL6 mice by transtracheal administration of bleomycin (BM; 2.5 U/kg) in 50 μL of PBS under direct vision using a small cervical incision. Sham animals received only PBS. Animals were placed in a small-animal PET/SPECT/CT scanner (Triumph; TriFoil Imaging), equipped with inhalation anesthesia and heating pad. Each animal was anesthetized with isoflurane (4% for induction, 2-2.5% for maintenance in medical air) and body temperature was kept at 37-38° C. using a heating pad. The femoral vein was cannulated for intravenous delivery of the PET agent. Each mouse was injected with approximately 0.1 mL and 20-50 μCi of ^64Cu-CBP(n), 0.1 mL and 20-50 μCi of ^68Ga-CBP(n) and 0.1 mL and 10-20 μCi of Al^18F-CBP(n) in a 18 mM solution of sucrose in water, followed by saline flush. […] The lungs, blood, urine, heart, liver, left rectus femoris muscle, spleen, small intestine, kidneys, left femur bone were collected from all animals. The tissues were weighed, and radioactivity in each tissue was measured on a gamma counter (CobraII Auto gamma; Packard). The radioactivity in the lung was reported as percent injected dose per gram corrected with the average sham weight, which was calculated by dividing the counts of ^64Cu per average sham tissue weight in gram by the total of counts of the injected dose. The radioactivity in every other tissue was reported as percent injected dose per gram (% ID/g), which was calculated by dividing the counts of ^64Cu per gram of tissue by the total of counts of the injected dose. A p-value of less than 0.05 was considered significant. Uncertainties are expressed as the standard error of the mean.

A further data set in a line: in vivo. In kind it is in vivo, mouse. As to conditions: male, C57/BL6, mouse, in vivo, iv, total radioactivity, Biodistribution % ID/g, sm. intestine. The procedure:
as §1

Data set [2] deals with pulmonary fibrosis, C57/BL6 mice (bleomycin or sham). As to conditions: mouse, in vivo. The procedure:
Pulmonary fibrosis was induced in 7-8-week-old male C57/BL6 mice by transtracheal administration of bleomycin (BM; 2.5 U/kg) in 50 μL of PBS under direct vision using a small cervical incision. Sham animals received only PBS. Animals were placed in a small-animal PET/SPECT/CT scanner (Triumph; TriFoil Imaging), equipped with inhalation anesthesia and heating pad. Each animal was anesthetized with isoflurane (4% for induction, 1-1.5% for maintenance in medical air). After placement of an in-dwelling catheter in the femoral vein for probe administration, mice were positioned in the PET-CT and the probe was given as a bolus as the PET acquisition began. Mice were imaged continuously by PET for 120 minutes. […] Instrument calibration was performed with phantoms containing small known amounts of radioactivity. […] Reconstructed PET/CT data were quantitatively evaluated using AMIDE software package (Loening and Gambhir, 2003). […] The radioactivity concentration within organs was obtained from mean pixel values within the VOI volume and converted to counts per milliliter per minute and then divided by the injected dose (ID) to obtain an imaging VOI-derived percentage of the injected radioactive dose per cubic centimeter of tissue (% ID/cc). […] Instrument calibration was performed with phantoms containing small known amount of radioactivity. […]

The conditions of data set [3]: rat, in vivo. The method, then:
The pharmacokinetics and metabolic stability of the probes were evaluated in Adult male Wistar rats. The right femoral vein was cannulated for intravenous delivery of the PET agent and the right femoral artery was cannulated for blood sampling. Each animal was injected with approximately 50-70 μCi of ^64Cu-CBP(n) diluted in 0.2-0.3 mL with an 18 mM solution of sucrose in water, followed by saline flush. After probe injection, several blood draws were collected at 0, 2, 5, 10, 15, 30, 60 and 120 minutes post injection into ethylenediaminetetraacetic acid (EDTA) blood tubes. Blood was weighed, and radioactivity in the blood was measured on a gamma counter to assess clearance of total ^64Cu. The serum was isolated by centrifugation of the blood (10 minutes, 4950 rpm) and proteins were precipitated with a mixture of cold methanol/acetonitrile (1/1). Solids were removed by centrifugation and the supernatant was injected onto an analytic HPLC column. The eluent was collected every 30 seconds, and the activity of each fraction was measured using a gamma counter. The result was compared with standards of pure probe and probe immediately isolated from plasma (t=0 sample).

In another data set the target is T1, rat tail collagen (Rattus norvegicus, UniProt P02454+P02466).
T1 construct: from tissue; host or cells: rat tail
In words: rat tail collagen-binding assay. The note with it: 2 hours at room temperature, single binding site model. The method, then:
Binding isotherms were obtained by following a method previously reported. (Caravan, P., Das, B., Dumas, S., Epstein, F. H., Helm, P. A., Jacques, V., Koerner, S., Kolodziej, A., Shen, L., Sun, W., Zhang, Z., Angewandte Chemie, 2007, 119(43), 8319-8321.) Briefly, increasing concentrations of a mixture of ^63/65Cu-CBP(n) and ^64Cu-CBP(n) were added to collagen containing wells. […] An aliquot of each solution was reserved as a measure of the total concentration. The plates were incubated on a shaker table (300 rpm) for 2 hours at room temperature to allow the compound to bind. After 2 hours, the supernatant from each well (with or without collagen) was assayed for ^64Cu content. The relative amount of free, unbound compound in the sample supernatants and the amount of compound in the reserved (total) sample were determined by using a gamma counter. The bound concentration is [Total]−[Free]. The concentration of ^63/65Cu-CBP(n) was less than the collagen concentration and the data were fit to a model of a single binding site with dissociation constant, Kd.

SMILES strings stand for the structures.

T1 sequence (P02454 152-1207 limits assumed): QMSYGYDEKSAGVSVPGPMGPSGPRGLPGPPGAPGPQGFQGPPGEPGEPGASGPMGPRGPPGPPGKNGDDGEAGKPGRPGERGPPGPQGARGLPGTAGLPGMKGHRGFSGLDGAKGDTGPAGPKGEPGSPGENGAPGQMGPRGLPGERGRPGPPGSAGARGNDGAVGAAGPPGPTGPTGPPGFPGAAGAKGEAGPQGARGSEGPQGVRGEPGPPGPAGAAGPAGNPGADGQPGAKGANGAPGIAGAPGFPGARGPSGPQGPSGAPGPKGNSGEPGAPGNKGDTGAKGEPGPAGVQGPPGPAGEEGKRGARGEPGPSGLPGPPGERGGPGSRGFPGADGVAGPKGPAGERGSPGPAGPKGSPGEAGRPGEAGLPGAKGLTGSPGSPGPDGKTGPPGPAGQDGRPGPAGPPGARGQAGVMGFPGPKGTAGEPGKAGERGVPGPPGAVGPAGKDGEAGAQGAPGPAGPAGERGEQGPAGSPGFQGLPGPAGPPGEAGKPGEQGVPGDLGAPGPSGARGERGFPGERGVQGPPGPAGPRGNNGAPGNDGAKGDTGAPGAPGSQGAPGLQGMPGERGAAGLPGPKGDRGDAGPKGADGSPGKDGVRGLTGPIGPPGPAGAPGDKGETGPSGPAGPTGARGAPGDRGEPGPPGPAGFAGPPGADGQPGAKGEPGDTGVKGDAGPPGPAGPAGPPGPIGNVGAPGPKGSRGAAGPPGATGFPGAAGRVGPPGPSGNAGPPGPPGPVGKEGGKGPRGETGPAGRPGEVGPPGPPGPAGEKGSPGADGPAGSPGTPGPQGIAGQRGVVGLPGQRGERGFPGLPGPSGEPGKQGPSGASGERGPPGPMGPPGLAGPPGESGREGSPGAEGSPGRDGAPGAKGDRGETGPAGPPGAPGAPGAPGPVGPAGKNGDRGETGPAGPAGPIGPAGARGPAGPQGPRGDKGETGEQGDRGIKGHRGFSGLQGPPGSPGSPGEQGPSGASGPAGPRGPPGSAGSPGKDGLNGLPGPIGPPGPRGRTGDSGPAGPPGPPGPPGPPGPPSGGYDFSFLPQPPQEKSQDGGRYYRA
T1 sequence (P02466 86-1125 limits assumed): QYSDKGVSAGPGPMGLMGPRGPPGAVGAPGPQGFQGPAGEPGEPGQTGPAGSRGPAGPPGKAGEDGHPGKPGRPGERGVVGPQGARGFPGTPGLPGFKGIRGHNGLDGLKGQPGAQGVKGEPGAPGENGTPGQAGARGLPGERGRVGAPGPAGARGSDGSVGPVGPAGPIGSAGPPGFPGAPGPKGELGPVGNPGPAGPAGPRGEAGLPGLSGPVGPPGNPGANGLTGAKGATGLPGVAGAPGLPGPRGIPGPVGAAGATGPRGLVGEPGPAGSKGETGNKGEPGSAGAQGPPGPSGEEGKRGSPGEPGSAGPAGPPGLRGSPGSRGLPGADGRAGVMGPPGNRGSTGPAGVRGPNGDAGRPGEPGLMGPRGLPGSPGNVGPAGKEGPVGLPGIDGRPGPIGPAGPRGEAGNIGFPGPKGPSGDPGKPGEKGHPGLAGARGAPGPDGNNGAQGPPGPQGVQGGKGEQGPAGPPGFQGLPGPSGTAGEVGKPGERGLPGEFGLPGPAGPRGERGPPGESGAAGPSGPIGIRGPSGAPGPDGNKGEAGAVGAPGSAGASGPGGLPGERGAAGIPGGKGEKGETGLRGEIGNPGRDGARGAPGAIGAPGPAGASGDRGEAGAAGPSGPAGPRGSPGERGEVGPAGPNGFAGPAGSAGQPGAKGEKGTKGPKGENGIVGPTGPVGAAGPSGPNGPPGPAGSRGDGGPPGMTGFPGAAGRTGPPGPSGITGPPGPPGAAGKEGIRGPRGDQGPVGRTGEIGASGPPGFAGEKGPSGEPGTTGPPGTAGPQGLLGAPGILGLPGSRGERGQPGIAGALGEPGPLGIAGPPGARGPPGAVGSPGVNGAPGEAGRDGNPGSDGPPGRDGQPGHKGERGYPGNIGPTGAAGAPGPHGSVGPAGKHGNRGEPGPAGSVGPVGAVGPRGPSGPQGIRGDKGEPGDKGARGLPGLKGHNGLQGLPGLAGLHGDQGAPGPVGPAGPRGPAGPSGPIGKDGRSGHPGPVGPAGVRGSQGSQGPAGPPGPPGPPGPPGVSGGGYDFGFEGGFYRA

Consider `CC(C)C[C@H](NC(=O)[C@@H]1CSSC[C@H](NC(=O)[C@H](Cc2c[nH]cn2)NC(=O)[C@H](Cc2c[nH]c3ccccc23)NC(=O)[C@H](CCCCNC(=O)CNC(=O)CCC(C(=O)O)N2CCN(CC(=O)O)CCN(CC(=O)O)CC2)NC(=O)CNC(=O)CCC(C(=O)O)N2CCN(CC(=O)O)CCN(CC(=O)O)CC2)C(=O)N[C@@H]([C@@H](C)O)C(=O)N[C@@H]([C@@H](C)O)C(=O)N[C@@H](CCCCNC(=O)CCC(C(=O)O)N2CCN(CC(=O)O)CCN(CC(=O)O)CC2)C(=O)N[C@@H](Cc2ccccc2)C(=O)N2CCC[C@H]2C(=O)N[C@@H](Cc2c[nH]cn2)C(=O)N[C@@H](Cc2c[nH]cn2)C(=O)N[C@@H](Cc2ccc(O)cc2)C(=O)N1)C(=O)N[C@@H](Cc1ccc(O)cc1)C(=O)N[C@@H](Cc1ccc(-c2ccccc2)cc1)C(N)=O` (single isomer, unassigned) [CBP7], for which the “Biodistribution % ID/g, sm. intestine” value in data set [1] (male, C57/BL6, mouse, 2 h) is 0.877 ± 0.077 % ID/g. In addition, in data set [1] (mouse), the route of excretion result is “excreted mainly through the kidneys”. Also, the tissue uptake at 2 h in the data set “in vivo” came out at 0.853 ± 0.246 %ID/g. In addition, the “Mean PET activity in heart and muscle, BM-treated vs sham, in words” value in data set [2] is “not significantly different”. Also, the “metabolic stability compared with CBP(n) probes with a single NODAGA chelator” value in data set [3] is on record as “more metabolically stable”. At rat tail collagen, binding was characterised by a dissociation constant (Kd) of 2400 ± 1500 nM.
